Assay results published in article PMC5643063, “Viral infection upregulates myostatin promoter activity in orange-spotted grouper (Epinephelus coioides)”.

Biological target: T1, MyoD (Epinephelus coioides (orange-spotted …, UniProt D9IV55 1-269))
T1 sequence: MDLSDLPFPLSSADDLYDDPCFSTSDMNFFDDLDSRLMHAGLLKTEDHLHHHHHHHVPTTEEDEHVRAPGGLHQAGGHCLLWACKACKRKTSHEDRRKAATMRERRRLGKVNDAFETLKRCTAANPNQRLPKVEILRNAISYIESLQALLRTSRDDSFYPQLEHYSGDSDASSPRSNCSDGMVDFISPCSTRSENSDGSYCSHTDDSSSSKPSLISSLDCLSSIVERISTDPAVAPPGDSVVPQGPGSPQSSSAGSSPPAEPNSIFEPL
Assay: EMSA; 2 ug MyoD, increasing probe, poly[d(I-C)] 0.1 ng, 5 mM Mg2+; 20 mM HEPES pH 7.9, 50 mM KCl, 5 mM MgCl2, 0.5 mM EDTA, 5 mM DTT, 5% glycerol, 0.1 ng poly[d(I-C)], 30 min room temperature; 6.5% native PAGE 0.5X TBE
Conditions: protein: recombinant; tags: C-terminal pET-29a His tag likely (NdeI/XhoI primers, no stop codon); chain copies: 2; label: Cy3; blunt

B1: E-box E6 probe (E6F/E6R) (dsDNA)
DNA 1: CTGTATGTGGATCATTTGTGTCTTTGGTGG
DNA 2: CCACCAAAGACACAAATGATCCACATACAG
binding result: binds
